Test results taken from publication PMC3750193, “Disassembly of All SNARE Complexes by N-Ethylmaleimide-sensitive Factor (NSF) Is Initiated by a Conserved 1:1 Interaction between α-Soluble NSF Attachment Protein (SNAP) and SNARE Complex*^([image sbox.jpg])” (The Journal of Biological Chemistry, 2013).

Experiments:
[1] = biological target: T1, VAMP7-syntaxin1-SNAP25 ternary SNARE complex, labeled with Oregon Green 488 (rat, UniProt Q9JHW5 1-190; P32851 1-265; P60881-2 1-206, C21S | C56V | C145S | S249C | K253C, Oregon Green 488 (maleimide) on cysteines; the labeled endogenous and mutant cysteines are shown in Figure 1A); experiment: other fluorescence titration; change in Oregon Green 488 fluorescence intensity of the labeled SNARE complex as a function of α-SNAP concentration; fit y = Fmax·x/(KD + x); three independent experiments; conditions: both partners purified
T1 construct: VAMP7, rat, residues 1-190; syntaxin1A, rat, residues 1-265; SNAP25A, rat; Removal of the His6 tag is told only for α-SNAP; also called VAMP7(1–190)-C21S/C56V-syntaxin1A(1–265)-C145S/S249C/K253C-SNAP25A; source: E. coli BL21(DE3), coexpressed, purified (Ni-NTA, Superdex 200); copies: + +
T1 sequence (Q9JHW5 1-190 C21S/C56V, chain 1 of 3): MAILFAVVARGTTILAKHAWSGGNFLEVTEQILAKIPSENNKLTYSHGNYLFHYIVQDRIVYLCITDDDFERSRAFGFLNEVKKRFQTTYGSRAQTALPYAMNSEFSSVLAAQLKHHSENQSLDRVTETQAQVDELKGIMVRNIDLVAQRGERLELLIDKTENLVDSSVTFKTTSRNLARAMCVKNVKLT
T1 sequence (P32851 1-265 C145S/S249C/K253C, chain 2 of 3): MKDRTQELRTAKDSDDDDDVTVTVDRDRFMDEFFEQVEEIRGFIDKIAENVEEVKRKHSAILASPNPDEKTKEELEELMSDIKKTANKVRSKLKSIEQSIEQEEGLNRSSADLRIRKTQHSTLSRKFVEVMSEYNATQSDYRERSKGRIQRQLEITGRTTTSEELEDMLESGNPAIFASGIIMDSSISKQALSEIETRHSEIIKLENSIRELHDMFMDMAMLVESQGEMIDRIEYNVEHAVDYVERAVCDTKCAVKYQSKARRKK
T1 sequence (P60881 other isoform, or with tags, fused parts or gaps with the stated changes, chain 3 of 3): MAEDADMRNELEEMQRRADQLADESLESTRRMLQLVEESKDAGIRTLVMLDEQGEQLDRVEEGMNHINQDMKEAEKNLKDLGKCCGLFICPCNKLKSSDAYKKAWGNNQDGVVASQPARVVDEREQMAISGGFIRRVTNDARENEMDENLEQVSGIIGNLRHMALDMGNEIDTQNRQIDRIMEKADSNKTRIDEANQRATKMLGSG

[2] = biological target: T2, ^ΔNVAMP7-^ΔNsyntaxin1-SNAP25 core complex (rat, UniProt Q9JHW5 119-190; P32851 191-265; P60881-2 1-206, S249C | K253C); experiment: SEC-MALS; 30 μM SNARE complex and 30 μM α-SNAP (1:1 mixture); WTC-030S5 column; 20 mM Tris-HCl (pH 8.0), 50 mM NaCl, 0.1 mM TCEP; conditions: both partners purified
T2 construct: VAMP7, rat, residues 119-190; syntaxin1A, rat, residues 191-265; the construct's printed name also holds C145S, which lies outside 191-265; SNAP25A, rat; also called ^ΔNSNARE complex; core of the VAMP7-syntaxin1-SNAP25 SNARE complex (without the N-terminal domains); source: E. coli, coexpressed, purified; copies: + +
T2 sequence (Q9JHW5 119-190, stated change not applied, chain 1 of 3): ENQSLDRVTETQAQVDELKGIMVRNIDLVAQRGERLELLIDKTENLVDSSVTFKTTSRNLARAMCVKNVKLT
T2 sequence (P32851 191-265 S249C/K253C, chain 2 of 3): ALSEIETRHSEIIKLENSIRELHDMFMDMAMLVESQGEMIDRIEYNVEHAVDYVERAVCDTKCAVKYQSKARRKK
T2 sequence (P60881 other isoform, or with tags, fused parts or gaps S249C | K253C | S249C | K253C | mutant, chain 3 of 3): as the sequence (P60881 other isoform, or with tags, fused parts or gaps with the stated changes, chain 3 of 3) above

B1: α-soluble NSF attachment protein (α-SNAP) (natural protein, rat, UniProt P54921 1-295, looked up)
chain: MDTSGKQAEAMALLAEAERKVKNSQSFFSGLFGGSSKIEEACEIYARAANMFKMAKNWSAAGNAFCQAAQLHLQLQSKHDAATCFVDAGNAFKKADPQEAINCLMRAIEIYTDMGRFTIAAKHHISIAEIYETELVDVEKAIAHYEQSADYYKGEESNSSANKCLLKVAGYAAQLEQYQKAIDIYEQVGTSAMDSPLLKYSAKDYFFKAALCHFCIDMLNAKLAVQKYEELFPAFSDSRECKLMKKLLEAHEEQNVDSYTESVKEYDSISRLDQWLTTMLLRIKKTIQGDEEDLR
notes: α-SNAP, rat; His6 tag removed with tobacco etch virus protease; source: E. coli BL21(DE3), purified (Ni-NTA, Superdex 200)
[1]
  binding result: binds
[2]
  stoichiometry N: 1 α-SNAP per SNARE complex
